This is an account of results in patent publication US5668265.

For the series, the target named is alpha-thrombin (Homo sapiens) (UniProt P00734+P00734). Put plainly: SPR. Conditions: apparent.
[1] abbreviates: DNA segments joined 3'-3' by a single phosphodiester (inverted polarity; second segment given 5'-3'), solution competition vs immobilized consensus aptamer, same buffer, 25 C.
[2] abbreviates: DNA segments joined 3'-3' through glycerol phosphodiester linker L2 (both segments given 5'-3'), solution competition vs immobilized consensus …, same buffer, 25 C.

Turning to GGTTGGTTGGTTGGTT [Compound 2], the Kd under setting [1] was 312 nM.
On to GGTTGGTTGGGTTGGTT [Compound 3], for which the Kd under setting [1] was 11 nM.
As for “GGTTGGGGTTGG [Compound 11 (uni-directional)]”, the Kd (hexaethylene glycol phosphodiester linker L1 between 3' end of first and 5' end of second segment (normal polarity), solution competition vs immobilized consensus aptamer, same buffer, 25 C) stood at 29 nM.
In the case of GGTTGGTTGGTTGGTT [Compound 9], under setting [2], the Kd came out at 19 nM.
On to GGTTGGTTGGTTGGTT [Compound 6], for which the Kd (DNA segments joined 3'-3' through hexaethylene glycol phosphodiester linker L1 (both segments given 5'-3'), solution competition vs immobilized consensus aptamer, same buffer, 25 C) was found to be 10 nM.
With GGTTGGTGGGTTGGT [Compound 1], the Kd under setting [1] was determined as 224 nM.
Consider TGGTTGGTGGTTGG [Compound 7], for which, under “DNA segments joined 5'-5' through hexaethylene glycol phosphodiester linker L1 (both segments given 5'-3'), solution competition vs immobilized consensus aptamer, same buffer, 25 C”, the Kd was determined as 23 nM.
For TTGGTTGGTTGGTTGG [Compound 4], the Kd (DNA segments joined 5'-5' by a single phosphodiester (inverted polarity; both segments given 5'-3'), solution competition vs immobilized consensus aptamer, same buffer, 25 C) is 25 nM.
For the sequence GGTTGGTGGTTGGT [Compound 8], under setting [2], the Kd was 29 nM.
Take GGTTGGTGGTTGGT [Compound 5]: the Kd (DNA segments joined 3'-3' through hexaethylene glycol phosphodiester linker L1 (both segments given 5'-3'), solution competition vs immobilized consensus aptamer, 80 nM thrombin, 20 mM Tris-acetate, 140 mM NaCl, 5 mM KCl, 1 mM CaCl2, 1 mM MgCl2, pH 7.4 …) came to 9 nM.
